The supplement of paper PMC10126150
± gives the standard deviation of the averaged measurements.

system: ATP; assay: switch fluorescence ratio, 500 uM ATP over buffer (Cy3 cluster intensity, sum of 5 cycles each) (fold (ratio)); higher = stronger signal-on switching upon ATP binding; sequences stand for … in TCGTCGGCAGCGTCAGATGTGTATAAGAGACAGTTTTTTTTTTTTTTTTTTTTTTTTT…TC; conditions: aptamer strand: ATP DNA aptamer (quencher-CACCTGGGGGAGTATTGCGGAGGAAGG + anchor), 100 nM annealed; ATP concentration: 500 uM
How it was run: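 Switching-strand clusters labelled with Cy3 on a modified Illumina MiSeq flow-cell were annealed to 100 nM quencher-labelled ATP aptamer, imaged in selection buffer, and re-imaged after 15 min with 500 uM ATP at 22 °C. This was done over five cycles with NaOH stripping and re-annealing in between. The fluorescence ratio is summed target-cycle over summed buffer-cycle Cy3 intensity per cluster, averaged per switch-domain sequence, excluding clusters outside 100-1000 RFU.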
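Further: ATP exposure 15 min at 22 °C before imaging.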

| Sequence | switch fluorescence ratio |
| --- | --- |
| TTTTGTCGCG | 0.9735 ± 0.0032 |
| TTTTGTCTTT | 1 ± 0.032 |
| TTTTGTGACA | 1 ± 0.027 |
| TTTTGTGG | 1.01 ± 0.073 |
| TTTTGTGTA | 0.994 ± 0.022 |
| TTTTGTGTTT | 0.997 ± 0.028 |
| TTTTGTTAAT | 1.01 ± 0.035 |
| TTTTGTTCAG | 0.985 ± 0.037 |
| TTTTGTTCCT | 1.02 ± 0.026 |
| TTTTGTTGCG | 1.03 ± 0.043 |
| TTTTTAAATG | 0.991 ± 0.017 |
| TTTTTAACCT | 1.57 ± 0.36 |
| TTTTTAAGTT | 1 ± 0.028 |
| TTTTTAATGC | 0.979 ± 0.034 |
| TTTTTAATTA | 1.005 ± 0.008 |
| TTTTTAATTG | 0.997 ± 0.024 |
| TTTTTACCCG | 1.01 ± 0.013 |
| TTTTTACCGA | 1.014 ± 0.0082 |
| TTTTTAGACG | 0.981 ± 0.057 |
| TTTTTAGAG | 0.999 ± 0.021 |
| TTTTTAGAGA | 0.9912 ± 0.007 |
| TTTTTAGGGG | 1.02 ± 0.055 |
| TTTTTAGTAA | 0.979 ± 0.028 |

| Sequence | switch fluorescence ratio |
| --- | --- |
| TTTTTAGTAC | 0.99 ± 0.013 |
| TTTTTATGAG | 1 ± 0.036 |
| TTTTTATGCA | 1.018 ± 0.0031 |
| TTTTTATTAT | 1.01 ± 0.036 |
| TTTTTATTCT | 1.02 ± 0.02 |
| TTTTTATTGT | 0.997 ± 0.035 |
| TTTTTCAATC | 1.07 ± 0.035 |
| TTTTTCACTA | 1.03 ± 0.033 |
| TTTTTCAGGG | 1.01 ± 0.026 |
| TTTTTCAGGT | 0.997 ± 0.015 |
| TTTTTCCAAA | 1 ± 0.041 |
| TTTTTCCCGA | 1.018 ± 0.0038 |
| TTTTTCCCGG | 1.17 ± 0.23 |
| TTTTTCCGCT | 1.86 ± 1 |
| TTTTTCCGTA | 1.02 ± 0.059 |
| TTTTTCGAGG | 0.997 ± 0.025 |
| TTTTTCGATA | 1.06 ± 0.029 |
| TTTTTCGCTC | 1.01 ± 0.042 |
| TTTTTCGGGG | 1.02 ± 0.032 |
| TTTTTCGTTA | 1.1 ± 0.083 |
| TTTTTGAGTA | 1.02 ± 0.03 |
| TTTTTGATAC | 1.063 ± 0.0034 |
| TTTTTGCTTC | 1.02 ± 0.043 |

| Sequence | switch fluorescence ratio |
| --- | --- |
| TTTTTGGAAT | 1 ± 0.028 |
| TTTTTGGACC | 1.1 ± 0.22 |
| TTTTTGGATA | 1.02 ± 0.014 |
| TTTTTGGCCA | 1.01 ± 0.051 |
| TTTTTGGCCC | 0.9649 ± 0.0018 |
| TTTTTGGCGG | 0.978 ± 0.038 |
| TTTTTGGGAA | 0.996 ± 0.029 |
| TTTTTGGTGT | 1.03 ± 0.036 |
| TTTTTGTAAG | 0.998 ± 0.043 |
| TTTTTGTACG | 0.998 ± 0.025 |
| TTTTTGTCGC | 0.992 ± 0.025 |
| TTTTTGTCTT | 0.96 ± 0.023 |
| TTTTTGTGAC | 0.999 ± 0.027 |
| TTTTTGTGGC | 0.985 ± 0.03 |
| TTTTTGTGGG | 0.993 ± 0.023 |
| TTTTTGTTAC | 1.08 ± 0.027 |
| TTTTTGTTAG | 0.965 ± 0.024 |
| TTTTTGTTAT | 0.996 ± 0.02 |
| TTTTTTAAAT | 0.987 ± 0.022 |
| TTTTTTAACT | 1 ± 0.046 |
| TTTTTTAAGC | 1.01 ± 0.018 |
| TTTTTTAAGG | 1 ± 0.034 |
| TTTTTTACTG | 0.991 ± 0.026 |

| Sequence | switch fluorescence ratio |
| --- | --- |
| TTTTTTAGCC | 1.02 ± 0.091 |
| TTTTTTAGT | 0.992 ± 0.027 |
| TTTTTTATCT | 1.05 ± 0.07 |
| TTTTTTATGC | 0.997 ± 0.018 |
| TTTTTTCCCC | 1.04 ± 0.047 |
| TTTTTTCGCT | 1.02 ± 0.047 |
| TTTTTTCGTG | 1.001 ± 0.0077 |
| TTTTTTCTG | 1.04 ± 0.097 |
| TTTTTTGATA | 0.981 ± 0.022 |
| TTTTTTGC | 0.955 ± 0.011 |
| TTTTTTGCT | 0.996 ± 0.039 |
| TTTTTTGGCT | 0.995 ± 0.025 |
| TTTTTTGTAC | 1.06 ± 0.037 |
| TTTTTTTAAT | 1 ± 0.028 |
| TTTTTTTAGG | 0.982 ± 0.03 |
| TTTTTTTATG | 0.989 ± 0.037 |
| TTTTTTTATT | 1 ± 0.03 |
| TTTTTTTCAT | 1 ± 0.028 |
| TTTTTTTCCA | 1.02 ± 0.013 |
| TTTTTTTGCT | 0.994 ± 0.024 |
| TTTTTTTGTC | 1.02 ± 0.028 |
| TTTTTTTTTC | 1.04 ± 0.11 |
| TTTTTTTTTT | 1.01 ± 0.083 |
